Data on one molecule can be found in patent US20240409617A1 (Dana-Farber, published 2024).

The assay concerns the target Human FcRn, biotinylated (human, UniProt P55899 24-297; P61769 21-119).

B1: Ab2-7 scFv-Fc (Fc fusion)
chain 1: QVTLKESGPTRVKPTQTLTLTCTFSGFSLSTTGVGVGWIRQPPGKALEWLALIYWNDDKRYSPSLKSRLTITKDTSKNQVVLTMTNMDPVDTATYYCARISGSGYFYPFDIWGQGTTVTVSS
chain 2: NFMLTQPHSVSESPGKTVTISCTRSSGSIASNYVQWYQQRPGSSPTTVIYEDNQRPSGVPDRFSGSIDSSSNSASLTISGLKAEDEADYYCQSYDSSSLWVFGGGTKLTVL
Take B1: the Kd (usually the equilibrium constant for the complex coming apart) amounted to 0.0117 µM; the koff (as a rule, the first-order rate constant of dissociation) is 0.00198 s⁻¹; the kon (commonly the rate constant with which the complex forms) was found to be 169000 M⁻¹ s⁻¹.
